Here are results for one sequence from publication PMC3431237.

Data set [1] has as its target T1, PbrR (Cupriavidus metallidurans CH34 (plasmid pMOL30)) (UniProt Q58AJ5).
T1 sequence: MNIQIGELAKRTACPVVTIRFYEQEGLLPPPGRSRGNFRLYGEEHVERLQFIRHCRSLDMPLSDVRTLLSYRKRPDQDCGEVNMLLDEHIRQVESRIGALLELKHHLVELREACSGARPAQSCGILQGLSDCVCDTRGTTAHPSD
As to the kind of experiment: EMSA. Particulars: not given in material (gel retardation and DNase I protection as in cited refs 36 and 37).

The target in data set [2] is T1, PbrR (Cupriavidus metallidurans CH34 (plasmid pMOL30)). The data set can be described thus: DNase I footprinting. Particulars: not given in material (gel retardation and DNase I protection as in cited refs 36 and 37).

For the sequence “GCGAATGGTCACCACCGGGCATGCGGTGCGCTTGGCAAGCTCGCCGATCTGGATATTCATGGCGTCGGATGGGAGATGTCTTGACTCTATAGTAACTAGAGGGTGTTAAATCGGCAACGCGAGATGAATACACACAAGGGGTTGCCATGAGCGAATGTGGCTCGAAGGGATGTGGCTGCGCTTCCGTTGCGACGCGCAACCCAGAACCGAGCACGGTTGGCGCGGGGCTGAAGCAGGCGCGCTACCGAATCGAAAACATGGACTGTCCGACCGAAGAGGCGCTGATTCGCGACAAGC (double strand) [PpbrA 296 bp PCR product]”, the binding entry in data set [1] and in data set [2] was “binds” throughout.
